Data taken from US20100184658A1 (published 2010).

Columns and labels:
Assay in all cases: cell-based or functional assay
PRKX = target: T1, PRKX (UniProt P51817 1-358, limits assumed)
T1 sequence (looked up): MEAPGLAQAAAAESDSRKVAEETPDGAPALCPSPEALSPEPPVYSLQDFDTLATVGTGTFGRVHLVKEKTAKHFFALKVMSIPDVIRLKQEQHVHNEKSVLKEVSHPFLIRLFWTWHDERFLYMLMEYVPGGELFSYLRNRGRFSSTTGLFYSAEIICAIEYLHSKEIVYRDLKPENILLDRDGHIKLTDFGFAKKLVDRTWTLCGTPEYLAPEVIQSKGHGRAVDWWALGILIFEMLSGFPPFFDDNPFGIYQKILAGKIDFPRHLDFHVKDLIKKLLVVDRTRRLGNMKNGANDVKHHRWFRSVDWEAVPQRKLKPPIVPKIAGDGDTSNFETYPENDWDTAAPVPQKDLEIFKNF

PRKCI (PKC iota) = target: T2, PRKCI (PKC iota) (UniProt P41743 1-596, limits assumed)
T2 sequence (looked up): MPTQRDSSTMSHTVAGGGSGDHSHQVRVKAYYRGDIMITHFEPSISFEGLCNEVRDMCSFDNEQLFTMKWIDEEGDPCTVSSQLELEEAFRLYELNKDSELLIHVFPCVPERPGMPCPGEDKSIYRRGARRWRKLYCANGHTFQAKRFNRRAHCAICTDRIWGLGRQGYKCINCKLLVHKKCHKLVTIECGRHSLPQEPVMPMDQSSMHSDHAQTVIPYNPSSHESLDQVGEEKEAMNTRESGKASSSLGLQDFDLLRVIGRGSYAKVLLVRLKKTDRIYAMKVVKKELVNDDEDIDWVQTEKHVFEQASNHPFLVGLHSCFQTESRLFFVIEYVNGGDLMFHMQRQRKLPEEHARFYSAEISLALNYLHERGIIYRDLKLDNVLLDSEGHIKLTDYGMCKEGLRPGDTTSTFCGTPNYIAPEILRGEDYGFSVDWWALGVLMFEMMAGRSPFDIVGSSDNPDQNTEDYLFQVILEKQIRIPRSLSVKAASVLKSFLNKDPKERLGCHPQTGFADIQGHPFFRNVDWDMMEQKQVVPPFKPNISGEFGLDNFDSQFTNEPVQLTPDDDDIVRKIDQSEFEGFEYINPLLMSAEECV

[1] = target: RPS6KB1 (p70S6K) Ribosomal protein S6 kinase, 70 kDa, polypeptide 1 (human (printed as (h)), UniProt P23443 1-421, limits assumed)
Sequence of RPS6KB1 (p70S6K) Ribosomal protein S6 kinase, 70 kDa, polypeptide 1 (human (printed as (h)), UniProt P23443 1-421, limits assumed) (P23443 1-421 limits assumed): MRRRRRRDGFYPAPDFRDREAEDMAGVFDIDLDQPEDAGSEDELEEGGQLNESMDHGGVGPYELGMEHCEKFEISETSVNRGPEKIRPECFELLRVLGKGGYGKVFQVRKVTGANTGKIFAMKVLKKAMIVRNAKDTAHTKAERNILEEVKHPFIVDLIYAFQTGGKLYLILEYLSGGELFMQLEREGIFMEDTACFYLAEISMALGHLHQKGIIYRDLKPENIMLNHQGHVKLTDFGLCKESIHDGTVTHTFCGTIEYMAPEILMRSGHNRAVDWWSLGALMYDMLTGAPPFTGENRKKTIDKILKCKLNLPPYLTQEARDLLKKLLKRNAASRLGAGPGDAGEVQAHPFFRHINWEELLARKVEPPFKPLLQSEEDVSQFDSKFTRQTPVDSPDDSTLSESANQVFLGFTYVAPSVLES

[2] = target: T3, CAMK4 (CaMKIV) Calcium/calmodulin-dependent protein kinase IV (UniProt Q16566 1-473, limits assumed)
T3 sequence (looked up): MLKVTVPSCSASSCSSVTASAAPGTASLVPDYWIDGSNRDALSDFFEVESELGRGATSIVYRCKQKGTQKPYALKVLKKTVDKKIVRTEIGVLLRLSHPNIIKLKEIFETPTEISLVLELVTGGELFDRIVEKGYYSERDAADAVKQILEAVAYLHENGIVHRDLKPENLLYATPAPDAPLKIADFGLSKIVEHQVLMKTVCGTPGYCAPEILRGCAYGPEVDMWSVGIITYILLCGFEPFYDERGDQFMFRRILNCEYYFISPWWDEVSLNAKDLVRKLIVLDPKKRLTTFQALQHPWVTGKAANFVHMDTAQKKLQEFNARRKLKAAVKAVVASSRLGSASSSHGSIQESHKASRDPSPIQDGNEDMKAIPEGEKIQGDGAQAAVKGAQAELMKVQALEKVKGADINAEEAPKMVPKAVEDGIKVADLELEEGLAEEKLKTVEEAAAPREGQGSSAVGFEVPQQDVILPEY

CAMK2A (CaMKII alpha) = CAMK2A (CaMKII alpha) (UniProt Q9UQM7 1-478, limits assumed)
Sequence of CAMK2A (CaMKII alpha) (Q9UQM7 whole entry): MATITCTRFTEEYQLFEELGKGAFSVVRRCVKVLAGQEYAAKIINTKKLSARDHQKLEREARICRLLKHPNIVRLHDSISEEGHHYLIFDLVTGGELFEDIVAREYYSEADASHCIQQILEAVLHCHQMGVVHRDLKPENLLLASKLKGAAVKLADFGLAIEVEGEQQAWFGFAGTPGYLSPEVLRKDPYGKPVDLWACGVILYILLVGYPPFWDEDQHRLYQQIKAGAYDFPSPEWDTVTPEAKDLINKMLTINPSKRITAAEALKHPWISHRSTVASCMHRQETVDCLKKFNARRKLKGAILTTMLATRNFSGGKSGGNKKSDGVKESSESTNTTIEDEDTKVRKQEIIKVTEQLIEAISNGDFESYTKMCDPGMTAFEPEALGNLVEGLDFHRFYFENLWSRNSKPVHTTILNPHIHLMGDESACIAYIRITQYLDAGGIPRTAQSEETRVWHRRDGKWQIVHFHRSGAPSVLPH

BRSK1 (SAD1) = target: T4, BRSK1 (SAD1) (UniProt Q8TDC3 1-778, limits assumed)
T4 sequence (looked up): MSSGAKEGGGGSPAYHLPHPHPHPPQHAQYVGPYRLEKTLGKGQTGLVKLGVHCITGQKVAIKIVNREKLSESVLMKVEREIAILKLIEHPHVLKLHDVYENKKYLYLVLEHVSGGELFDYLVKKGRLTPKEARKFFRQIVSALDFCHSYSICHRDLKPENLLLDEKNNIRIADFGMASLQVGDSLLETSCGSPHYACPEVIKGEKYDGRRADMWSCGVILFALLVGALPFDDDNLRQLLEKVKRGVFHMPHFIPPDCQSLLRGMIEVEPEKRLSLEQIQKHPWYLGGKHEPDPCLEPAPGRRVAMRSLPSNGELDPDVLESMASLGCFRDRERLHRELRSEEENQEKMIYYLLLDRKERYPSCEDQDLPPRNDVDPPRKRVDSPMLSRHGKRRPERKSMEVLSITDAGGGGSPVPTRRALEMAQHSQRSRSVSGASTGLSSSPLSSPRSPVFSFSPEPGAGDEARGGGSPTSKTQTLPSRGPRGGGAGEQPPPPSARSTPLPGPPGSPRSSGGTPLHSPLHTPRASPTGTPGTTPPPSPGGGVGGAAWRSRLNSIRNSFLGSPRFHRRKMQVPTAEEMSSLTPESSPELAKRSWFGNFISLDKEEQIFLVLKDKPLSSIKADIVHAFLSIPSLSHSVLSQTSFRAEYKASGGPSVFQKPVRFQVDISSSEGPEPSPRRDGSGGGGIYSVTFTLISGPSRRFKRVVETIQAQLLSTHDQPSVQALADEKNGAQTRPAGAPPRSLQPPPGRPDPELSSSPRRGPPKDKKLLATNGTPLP

MELK = MELK (UniProt Q14680 1-340, limits assumed)
Sequence of MELK (Q14680 1-340 limits assumed): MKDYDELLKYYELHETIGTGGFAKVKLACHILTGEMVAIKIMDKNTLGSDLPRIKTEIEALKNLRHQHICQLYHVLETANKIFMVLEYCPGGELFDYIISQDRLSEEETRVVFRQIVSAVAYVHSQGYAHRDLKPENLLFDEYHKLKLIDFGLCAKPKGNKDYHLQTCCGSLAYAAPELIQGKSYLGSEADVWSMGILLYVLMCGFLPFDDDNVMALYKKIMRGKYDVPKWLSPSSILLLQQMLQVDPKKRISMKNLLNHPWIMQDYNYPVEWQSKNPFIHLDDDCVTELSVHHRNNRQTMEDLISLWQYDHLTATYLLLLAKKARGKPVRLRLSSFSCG

[3] = target: PAK4 P21(CDKN1A)-activated kinase 4 (UniProt O96013 1-591, limits assumed)
Sequence of PAK4 P21(CDKN1A)-activated kinase 4 (O96013 whole entry): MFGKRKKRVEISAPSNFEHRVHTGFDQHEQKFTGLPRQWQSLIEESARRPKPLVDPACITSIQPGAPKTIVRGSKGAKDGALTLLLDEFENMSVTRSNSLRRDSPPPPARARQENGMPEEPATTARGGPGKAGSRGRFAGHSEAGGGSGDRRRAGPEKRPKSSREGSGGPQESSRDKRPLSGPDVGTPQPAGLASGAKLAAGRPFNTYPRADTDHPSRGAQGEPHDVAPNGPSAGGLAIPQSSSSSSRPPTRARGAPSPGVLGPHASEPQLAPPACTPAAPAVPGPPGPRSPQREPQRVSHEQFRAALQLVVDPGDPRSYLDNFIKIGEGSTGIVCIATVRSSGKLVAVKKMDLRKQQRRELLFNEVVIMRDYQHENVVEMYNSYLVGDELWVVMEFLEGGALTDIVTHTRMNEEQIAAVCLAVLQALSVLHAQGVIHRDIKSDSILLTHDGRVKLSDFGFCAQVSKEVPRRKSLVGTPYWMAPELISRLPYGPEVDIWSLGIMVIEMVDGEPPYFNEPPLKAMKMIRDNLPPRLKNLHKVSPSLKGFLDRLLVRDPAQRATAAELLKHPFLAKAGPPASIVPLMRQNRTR

[4] = target: MAPK9 (JNK2) Mitogen-activated protein kinase 9 (UniProt P45984 1-424, limits assumed)
PRKCD (PKC delta) = PRKCD (PKC delta) (UniProt Q05655 1-676, limits assumed)
Sequence of PRKCD (PKC delta) (Q05655 whole entry, stated change not applied): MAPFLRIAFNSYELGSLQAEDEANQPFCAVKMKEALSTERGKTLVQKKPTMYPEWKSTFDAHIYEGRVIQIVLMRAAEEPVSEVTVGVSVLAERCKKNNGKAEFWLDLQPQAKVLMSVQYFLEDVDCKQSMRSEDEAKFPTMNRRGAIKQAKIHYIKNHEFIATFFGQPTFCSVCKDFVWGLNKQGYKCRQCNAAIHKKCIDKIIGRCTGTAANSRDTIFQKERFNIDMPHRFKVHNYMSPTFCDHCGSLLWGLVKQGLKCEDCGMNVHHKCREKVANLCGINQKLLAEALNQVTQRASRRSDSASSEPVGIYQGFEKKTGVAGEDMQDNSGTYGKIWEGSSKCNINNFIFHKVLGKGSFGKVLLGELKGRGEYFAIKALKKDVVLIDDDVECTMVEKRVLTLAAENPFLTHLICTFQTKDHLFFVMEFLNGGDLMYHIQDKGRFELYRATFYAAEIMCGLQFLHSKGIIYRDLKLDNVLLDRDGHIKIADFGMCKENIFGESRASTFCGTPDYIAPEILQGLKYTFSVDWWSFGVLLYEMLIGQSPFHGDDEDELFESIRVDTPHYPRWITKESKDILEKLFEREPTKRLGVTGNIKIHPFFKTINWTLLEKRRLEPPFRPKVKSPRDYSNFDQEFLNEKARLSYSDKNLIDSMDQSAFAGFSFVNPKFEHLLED

[5] = target: RPS6KA1 (RSK1) Ribosomal protein S6 kinase, 90 kDa, polypeptide 1 (UniProt Q15418 1-735, limits assumed)
Sequence of RPS6KA1 (RSK1) Ribosomal protein S6 kinase, 90 kDa, polypeptide 1 (Q15418 whole entry): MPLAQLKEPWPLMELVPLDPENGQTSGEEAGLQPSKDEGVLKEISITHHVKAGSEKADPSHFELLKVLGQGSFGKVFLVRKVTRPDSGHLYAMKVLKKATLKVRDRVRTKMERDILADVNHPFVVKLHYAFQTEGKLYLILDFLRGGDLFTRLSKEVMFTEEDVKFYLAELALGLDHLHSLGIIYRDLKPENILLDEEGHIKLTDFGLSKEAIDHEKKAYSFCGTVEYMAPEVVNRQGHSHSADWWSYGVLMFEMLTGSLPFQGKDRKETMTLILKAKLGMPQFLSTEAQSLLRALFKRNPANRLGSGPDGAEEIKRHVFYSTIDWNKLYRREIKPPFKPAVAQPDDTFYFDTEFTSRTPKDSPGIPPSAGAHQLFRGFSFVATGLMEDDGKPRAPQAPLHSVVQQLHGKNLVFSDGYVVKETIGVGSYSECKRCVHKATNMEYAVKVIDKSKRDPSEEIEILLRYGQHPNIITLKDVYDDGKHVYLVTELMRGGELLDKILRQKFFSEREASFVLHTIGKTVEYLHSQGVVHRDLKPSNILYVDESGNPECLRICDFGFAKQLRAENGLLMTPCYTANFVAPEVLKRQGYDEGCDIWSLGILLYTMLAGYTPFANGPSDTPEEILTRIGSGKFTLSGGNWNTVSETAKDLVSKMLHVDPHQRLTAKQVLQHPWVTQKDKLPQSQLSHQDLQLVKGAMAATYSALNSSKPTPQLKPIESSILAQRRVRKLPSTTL

## SGRPPMIVWFNRPFLIAVSHTHGQTILFMAKVINPVGA [D3 peptide]
PRKX
  % Inhibition mean: 100%
PRKCI (PKC iota)
  % Inhibition mean: 48.9%
[1]
  % Inhibition mean: 100%
[2]
  % Inhibition mean: 99.6%
CAMK2A (CaMKII alpha)
  % Inhibition mean: 82.6%
BRSK1 (SAD1)
  % Inhibition mean: 83.5%
MELK
  % Inhibition mean: 85.8%
[3]
  % Inhibition mean: 47%
[4]
  % Inhibition mean: 92.9%
PRKCD (PKC delta)
  % Inhibition mean: 57.4%
[5]
  % Inhibition mean: 98.3%
